± gives the uncertainty stated by the source.
Test: protein stability index of a GFP-peptide fusion (yeast GPS) (PSI 1-4); higher = more stable; sorted into four equal gates, so the index is relative within each strain
Summary of the method: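 The protein stability index of a peptide was calculated by multiplying its read frequency in each gate by that gate's number and adding the products. The peptides were tiled 17-residue stretches of yeast proteins, fused downstream of GFP on a Cherry-expressing plasmid and carried in yeast as a pooled library. Mid-log cultures in leucine-free medium were sorted into four equal gates by GFP/Cherry ratio, and each gate's plasmids were PCR-amplified and Illumina-sequenced.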

EQNHLDNNYNTAETNNK [YDL088C/ASM4]
protein stability index (doa10∆): 3 ± 0.056 | protein stability index (pdr5∆): 2.96 ± 0.067 | protein stability index (san1∆): 3.02 ± 0.043 | protein stability index (ubr1∆): 2.93 ± 0.065

SRLLDILEDYCYFRDFE [ISW2]
protein stability index (doa10∆): 1.71 ± 0.088 | protein stability index (pdr5∆): 1.42 ± 0.089 | protein stability index (san1∆): 1.5 ± 0.12 | protein stability index (ubr1∆): 1.21 ± 0.058

PISISNAPTFNPKYDTS [YAR002W/NUP60]
protein stability index (doa10∆): 3.03 ± 0.076 | protein stability index (pdr5∆): 3.08 ± 0.068 | protein stability index (san1∆): 2.71 ± 0.059 | protein stability index (ubr1∆): 3.07 ± 0.06

PTIEYVQCPTVIKLAKY [ARP9]
protein stability index (doa10∆): 1.97 ± 0.047 | protein stability index (pdr5∆): 1.87 ± 0.034 | protein stability index (san1∆): 1.75 ± 0.068 | protein stability index (ubr1∆): 1.98 ± 0.032

SQIIPLMKKACYVGLLT [SNU114]
protein stability index (doa10∆): 1.67 ± 0.049 | protein stability index (pdr5∆): 1.82 ± 0.06 | protein stability index (san1∆): 1.75 ± 0.07 | protein stability index (ubr1∆): 1.83 ± 0.043

IILLGVLEDCRHLPMYT [ITC1]
protein stability index (doa10∆): 1.37 ± 0.064 | protein stability index (pdr5∆): 1.59 ± 0.054 | protein stability index (san1∆): 2.44 ± 0.099 | protein stability index (ubr1∆): 2.47 ± 0.067

CIIFMDEVDAIGGRRFS [RPT4]
protein stability index (doa10∆): 2.38 ± 0.089 | protein stability index (pdr5∆): 2.13 ± 0.075 | protein stability index (san1∆): 2.88 ± 0.1 | protein stability index (ubr1∆): 2.43 ± 0.099

GRDTTDYLKNIIVENSG [RPN2]
protein stability index (doa10∆): 3.21 ± 0.13 | protein stability index (pdr5∆): 2.83 ± 0.17 | protein stability index (san1∆): 3.34 ± 0.12 | protein stability index (ubr1∆): 3.4 ± 0.23

NSKDHKKITLQLLDTSN [SIN4]
protein stability index (doa10∆): 3.07 ± 0.07 | protein stability index (pdr5∆): 3.39 ± 0.078 | protein stability index (san1∆): 3.04 ± 0.074 | protein stability index (ubr1∆): 2.96 ± 0.053

EELLLKDLEIRKLEISS [GAL11]
protein stability index (pdr5∆): 2.31 ± 0.11 | protein stability index (san1∆): 3.18 ± 0.081 | protein stability index (ubr1∆): 1.09 ± 0.12

KVYYFQGGNNELGTAVG [RPL30]
protein stability index (doa10∆): 2.67 ± 0.093 | protein stability index (pdr5∆): 2.91 ± 0.086 | protein stability index (san1∆): 2.54 ± 0.054 | protein stability index (ubr1∆): 2.89 ± 0.072

INESAENFSNGISLVME [MED1]
protein stability index (doa10∆): 3.35 ± 0.11 | protein stability index (pdr5∆): 3.16 ± 0.07 | protein stability index (san1∆): 3.07 ± 0.055 | protein stability index (ubr1∆): 3.1 ± 0.045

KNDNGGKMNNEVSTSTS [SWI3]
protein stability index (doa10∆): 3.29 ± 0.08 | protein stability index (pdr5∆): 3.14 ± 0.1 | protein stability index (san1∆): 3.06 ± 0.053 | protein stability index (ubr1∆): 2.65 ± 0.075

AQGKEFGVTKARWPAKS [RPL17A]
protein stability index (doa10∆): 3.02 ± 0.13 | protein stability index (pdr5∆): 3.49 ± 0.12 | protein stability index (san1∆): 3.26 ± 0.066 | protein stability index (ubr1∆): 3.35 ± 0.097

AHRIMLTNILRMMGCVK [FAS2]
protein stability index (doa10∆): 1.86 ± 0.061 | protein stability index (pdr5∆): 1.87 ± 0.06 | protein stability index (san1∆): 1.9 ± 0.12 | protein stability index (ubr1∆): 2.41 ± 0.19

ENEVENINATNTSVLMK [YCS4]
protein stability index (doa10∆): 3.3 ± 0.16 | protein stability index (pdr5∆): 3.02 ± 0.12 | protein stability index (san1∆): 3.09 ± 0.091 | protein stability index (ubr1∆): 3.36 ± 0.087

IDSQMDEASGTPDEDML [GRR1]
protein stability index (doa10∆): 2.93 ± 0.063 | protein stability index (pdr5∆): 2.96 ± 0.065 | protein stability index (san1∆): 2.85 ± 0.068 | protein stability index (ubr1∆): 3.02 ± 0.053

KSDTVTSASQPFKFGKT [YOR098C/NUP1]
protein stability index (doa10∆): 2.34 ± 0.081 | protein stability index (pdr5∆): 1.71 ± 0.069 | protein stability index (san1∆): 1.62 ± 0.12 | protein stability index (ubr1∆): 1.97 ± 0.052

FFRNKLKYHDFLRKATA [RPL16B]
protein stability index (doa10∆): 2.02 ± 0.085 | protein stability index (pdr5∆): 2.48 ± 0.086 | protein stability index (san1∆): 2.4 ± 0.079 | protein stability index (ubr1∆): 2.23 ± 0.072

PLQSIPEIGNRKINLFY [SWI1]
protein stability index (doa10∆): 1.51 ± 0.07 | protein stability index (pdr5∆): 1.48 ± 0.072 | protein stability index (san1∆): 2.54 ± 0.073 | protein stability index (ubr1∆): 1.43 ± 0.064

EGKYIVDVAKDINVKDL [RPT6]
protein stability index (doa10∆): 3.44 ± 0.12 | protein stability index (pdr5∆): 3.21 ± 0.11 | protein stability index (san1∆): 2.67 ± 0.14 | protein stability index (ubr1∆): 3.24 ± 0.093

QQQQQHQQQQQQQQQQQ [SNF5]
protein stability index (doa10∆): 2.73 ± 0.04 | protein stability index (pdr5∆): 2.89 ± 0.05 | protein stability index (san1∆): 2.94 ± 0.043 | protein stability index (ubr1∆): 2.97 ± 0.044

NAEAKGLDATKLYVSHI [RPL17A]
protein stability index (doa10∆): 3.23 ± 0.16 | protein stability index (pdr5∆): 3.13 ± 0.092 | protein stability index (san1∆): 3.01 ± 0.05 | protein stability index (ubr1∆): 3.03 ± 0.071

KSTDNSAIRQVFERFKT [IRR1]
protein stability index (doa10∆): 2.21 ± 0.046 | protein stability index (pdr5∆): 2.7 ± 0.046 | protein stability index (san1∆): 2.19 ± 0.062 | protein stability index (ubr1∆): 2.8 ± 0.045

LERARDVNIVNRRLVYS [YCG1]
protein stability index (doa10∆): 2.44 ± 0.27 | protein stability index (san1∆): 1.72 ± 0.29 | protein stability index (ubr1∆): 1.66 ± 0.13

TDLHLPKKEYDDDAVRR [NSL1]
protein stability index (doa10∆): 1.99 ± 0.13 | protein stability index (pdr5∆): 2.25 ± 0.12 | protein stability index (san1∆): 1.42 ± 0.24 | protein stability index (ubr1∆): 3.13 ± 0.11

Source: the supplement of paper PMC9732359
